One substance from publication PMC13245265 can be followed below.

For this assay, the target named is Tectus dentatus superoxide dismutase 1 (Tectus dentatus). The experiment in a line: SEC.

Broadly, the stoichiometry N is the number of molecules, sites or subunits per partner or assembly.

The substance “Tectus dentatus superoxide dismutase 1 (enzyme)” showed a stoichiometry N of 2.
